Data: US9096871B2, “Variant CBH I polypeptides with reduced product inhibition” (BP Corporation North America Inc., priority 2010, dated 2015)

B1: R268A: T. reesei CBH I (SEQ ID NO:2) with R268A substitution (protein, listed as Trichoderma reesei)
chain: MYRKLAVISAFLATARAQSACTLQSETHPPLTWQKCSSGGTCTQQTGSVVIDANWRWTHATNSSTNCYDGNTWSSTLCPDNETCAKNCCLDGAAYASTYGVTTSGNSLSIGFVTQSAQKNVGARLYLMASDTTYQEFTLLGNEFSFDVDVSQLPCGLNGALYFVSMDADGGVSKYPTNTAGAKYGTGYCDSQCPRDLKFINGQANVEGWEPSSNNANTGIGGHGSCCSEMDIWEANSISEALTPHPCTTVGQEICEGDGCGGTYSDNAYGGTCDPDGCDWNPYRLGNTSFYGPGSSFTLDTTKKLTVVTQFETSGAINRYYVQNGVTFQQPNAELGSYSGNELNDDYCTAEEAEFGGSSFSDKGGLTQFKKATSGGMVLVMSLWDDYYANMLWLDSTYPTNETSSTPGAVRGSCSTSSGVPAQVESQSPNAKVTFSNIKFGPIGSTGNPSGGNPPGGNPPGTTTTRRPATTTGSSPGPTQSHYGQCGGIGYSGPTVCASGTTCQVLNPYYSQCL
B2: R411K: T. reesei CBH I (SEQ ID NO:2) with R411K substitution (protein, listed as Trichoderma reesei)
chain: MYRKLAVISAFLATARAQSACTLQSETHPPLTWQKCSSGGTCTQQTGSVVIDANWRWTHATNSSTNCYDGNTWSSTLCPDNETCAKNCCLDGAAYASTYGVTTSGNSLSIGFVTQSAQKNVGARLYLMASDTTYQEFTLLGNEFSFDVDVSQLPCGLNGALYFVSMDADGGVSKYPTNTAGAKYGTGYCDSQCPRDLKFINGQANVEGWEPSSNNANTGIGGHGSCCSEMDIWEANSISEALTPHPCTTVGQEICEGDGCGGTYSDNRYGGTCDPDGCDWNPYRLGNTSFYGPGSSFTLDTTKKLTVVTQFETSGAINRYYVQNGVTFQQPNAELGSYSGNELNDDYCTAEEAEFGGSSFSDKGGLTQFKKATSGGMVLVMSLWDDYYANMLWLDSTYPTNETSSTPGAVKGSCSTSSGVPAQVESQSPNAKVTFSNIKFGPIGSTGNPSGGNPPGGNPPGTTTTRRPATTTGSSPGPTQSHYGQCGGIGYSGPTVCASGTTCQVLNPYYSQCL
B3: R268K/R411K: T. reesei CBH I (SEQ ID NO:2) with R268K and R411K substitutions (protein, listed as Trichoderma reesei)
chain: MYRKLAVISAFLATARAQSACTLQSETHPPLTWQKCSSGGTCTQQTGSVVIDANWRWTHATNSSTNCYDGNTWSSTLCPDNETCAKNCCLDGAAYASTYGVTTSGNSLSIGFVTQSAQKNVGARLYLMASDTTYQEFTLLGNEFSFDVDVSQLPCGLNGALYFVSMDADGGVSKYPTNTAGAKYGTGYCDSQCPRDLKFINGQANVEGWEPSSNNANTGIGGHGSCCSEMDIWEANSISEALTPHPCTTVGQEICEGDGCGGTYSDNKYGGTCDPDGCDWNPYRLGNTSFYGPGSSFTLDTTKKLTVVTQFETSGAINRYYVQNGVTFQQPNAELGSYSGNELNDDYCTAEEAEFGGSSFSDKGGLTQFKKATSGGMVLVMSLWDDYYANMLWLDSTYPTNETSSTPGAVKGSCSTSSGVPAQVESQSPNAKVTFSNIKFGPIGSTGNPSGGNPPGGNPPGTTTTRRPATTTGSSPGPTQSHYGQCGGIGYSGPTVCASGTTCQVLNPYYSQCL
B4: R411A: T. reesei CBH I (SEQ ID NO:2) with R411A substitution (protein, listed as Trichoderma reesei)
chain: MYRKLAVISAFLATARAQSACTLQSETHPPLTWQKCSSGGTCTQQTGSVVIDANWRWTHATNSSTNCYDGNTWSSTLCPDNETCAKNCCLDGAAYASTYGVTTSGNSLSIGFVTQSAQKNVGARLYLMASDTTYQEFTLLGNEFSFDVDVSQLPCGLNGALYFVSMDADGGVSKYPTNTAGAKYGTGYCDSQCPRDLKFINGQANVEGWEPSSNNANTGIGGHGSCCSEMDIWEANSISEALTPHPCTTVGQEICEGDGCGGTYSDNRYGGTCDPDGCDWNPYRLGNTSFYGPGSSFTLDTTKKLTVVTQFETSGAINRYYVQNGVTFQQPNAELGSYSGNELNDDYCTAEEAEFGGSSFSDKGGLTQFKKATSGGMVLVMSLWDDYYANMLWLDSTYPTNETSSTPGAVAGSCSTSSGVPAQVESQSPNAKVTFSNIKFGPIGSTGNPSGGNPPGGNPPGTTTTRRPATTTGSSPGPTQSHYGQCGGIGYSGPTVCASGTTCQVLNPYYSQCL

Assay: Bagasse assay in the absence and presence of β-glucosidase (BG)
Format: biochemical
Settings: variants of T. reesei CBH I; [(Activity without BG)/(Activity with BG)]*100; conversion of glucan after 72 hours
Experimental: Bagasse Assay: This assay measures the activity of CBH I on bagasse, a lignocellulosic substrate. Reactions were run in 10 ml vials with 5% dilute acid pretreated bagasse (250 mg solids per 5 ml reaction). Each reaction contained 4 mg CBH I enzyme/g solids, 200 mM MES pH 6, kanamycin, and chloramphenicol. Reactions were incubated at 35° C. in hybridization incubators (Robbins Scientific), rotating at 20 RPM. Time points were taken by transferring a sample of homogenous slurry (150 μl) into a 96-well deep well plate and quenching the reaction with stop buffer (450 μl of 500 mM sodium carbonate, pH 10). Time point measurements were taken every 24 hours for 72 hours.
Cellobiose Tolerance Assays (or Cellobiose Inhibition Assays): Tolerance to cellobiose (or inhibition caused by cellobiose) was tested in two ways in the CBH I assays. A direct-dose tolerance method can be applied to all of the CBH I assays (i.e., 4-MUL, PASC, and/or bagasse assays), and entails the exogenous addition of a known amount of cellobiose into assay mixtures. A different indirect method entails the addition of an excess amount of β-glucosidase (BG) to PASC and bagasse assays (typically, 1 mg β-glucosidase/g solids loaded). BG will enzymatically hydrolyze the cellobiose generated during these assays; therefore, CBH I activity in the presence of BG can be taken as a measure of activity in the absence of cellobiose. Furthermore, when activity in the presence and absence of BG are similar, this indicates tolerance to cellobiose. […]
FIGS. 4 and 5 show bar graph data for the bagasse assay of wild type T. reesei CBH I vs. the variants. In FIG. 4, bars represent relative activity, normalized to wild type activity in the absence of cellobiose (WT+BG=1). In FIG. 5, bars represent tolerance to cellobiose, as represented by the ratio of activity in the presence of accumulating cellobiose (−BG) to that of activity in the absence of cellobiose (+BG); ratios close to 1 indicate greater tolerance to cellobiose.

Compared with B1, B2 is higher in “Tolerance to cellobiose accumulation % Activity in Bagasse Assay (−/+BG)” value: 86% for the first, 89% for the second.

B3 and B4 are the same in “Tolerance to cellobiose accumulation % Activity in Bagasse Assay (−/+BG)” value: 94% for the first, 94% for the second.
